Laboratory results reported in paper PMC5915741, “A Viral Suppressor Modulates the Plant Immune Response Early in Infection by Regulating MicroRNA Activity” (mBio, 2018).

T1: p19 (Carnation Italian ringspot virus (CIRV), UniProt Q66104 1-172)
T1 sequence: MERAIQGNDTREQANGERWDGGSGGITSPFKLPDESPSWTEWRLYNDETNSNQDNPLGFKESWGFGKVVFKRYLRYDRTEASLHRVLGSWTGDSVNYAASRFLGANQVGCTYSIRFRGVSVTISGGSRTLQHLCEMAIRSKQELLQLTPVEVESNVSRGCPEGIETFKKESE

T2: 2b (Tomato aspermy virus (TAV), UniProt Q8UYT3 1-95)
T2 sequence: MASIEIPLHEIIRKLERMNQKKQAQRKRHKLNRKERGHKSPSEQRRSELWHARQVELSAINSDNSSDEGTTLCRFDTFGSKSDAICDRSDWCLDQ

B1: Carnation Italian ringspot virus (CIRV) p19 protein (natural protein)
chain: T1 sequence
notes: p19 viral suppressor of RNA silencing of Carnation Italian ringspot virus (CIRV); the p19 open reading frame cloned into pGEX-6P-1; theoretical mass of the monomer 19.479 kDa; GST removed with PreScission protease; also called Tombusvirus p19; source: E. coli BL21(DE3) RIPL, purified (GSTrap, PreScission cleavage, Resource Q anion exchange)
B2: gf698 siRNA (dsRNA)
RNA 1: UAGUUCAUCCAUGCCAUGUGU
RNA 2: ACAUGGCAUGGAUGAACUAUA
modifications: 5' phosphate on both strands
B3: AtmiR162 (= NbmiR162b per Table 1) (dsRNA)
RNA 1: UCGAUAAACCUCUGCAUCCAG
RNA 2: GGAGGCAGCGGUUCAUCGAUC
modifications: 5' phosphate on both strands
B4: AtmiR168a (= NbmiR168d,e) (dsRNA)
RNA 1: UCGCUUGGUGCAGGUCGGGAA
RNA 2: CCCGCCUUGCAUCAACUGAAU
modifications: 5' phosphate on both strands
B5: AtmiR403 (dsRNA)
RNA 1: UUAGAUUCACGCACAAACUCG
RNA 2: UGUUUUGUGCUUGAAUCUAAUU
modifications: 5' phosphate on both strands
B6: NbmiR403a (dsRNA)
RNA 1: UUAGAUUCACGCACAAACUCG
RNA 2: UGUUUGUGCGUGAAUCUGACA
modifications: 5' phosphate on both strands
B7: NbmiR403b (dsRNA)
RNA 1: UUAGAUUCACGCACAAACUCG
RNA 2: UGUUUGUGCGUGAUUCUGACA
modifications: 5' phosphate on both strands
B8: NbmiR162a (Table 1 name) (dsRNA)
RNA 1: UCGAUAAACCUCUGCAUCCAG
RNA 2: GGAGGCAGCGGUUUAUCGAUC
modifications: 5' phosphate on both strands
B9: AtmiR168b (dsRNA)
RNA 1: UCGCUUGGUGCAGGUCGGGAA
RNA 2: CCCGUCUUGUAUCAACUGAAU
modifications: 5' phosphate on both strands
B10: NbmiR168a,b,c (dsRNA)
RNA 1: UCGCUUGGUGCAGGUCGGGAC
RNA 2: CCCGCCUUGCAUCAACUGAAU
modifications: 5' phosphate on both strands

Key:
[1] = target: the molecule itself; assay: AUC; sedimentation equilibrium (18,000 rpm) and velocity (40,000 rpm), 20°C, CIRV p19 at 1.2 to 13 µM in buffer D; no RNA
p19 [2] = target: T1, p19; assay: EMSA; settings: protein: recombinant, tags: GST (pGEX-6P-1) removed by PreScission protease, chain copies: 2
2b [3] = target: T2, 2b; assay: EMSA; settings: protein: recombinant, tags: His-SUMO removed by SUMO protease, chain copies: 2
p19 [4] = target: T1, p19; assay: competition EMSA; KC vs labeled gf698 siRNA, 0.5 nM p19 dimer; settings: protein: recombinant, tags: GST (pGEX-6P-1) removed by PreScission protease, chain copies: 2
2b [5] = target: T2, 2b; assay: competition EMSA; KC vs labeled gf698 siRNA, 1.9 nM 2b monomer; settings: protein: recombinant, tags: His-SUMO removed by SUMO protease, chain copies: 2
[6] = miRNA duplex with mismatches, 3' overhangs
[7] = miRNA duplex with mismatches, 22 nt star strand
[8] = label: 5'-32P, miRNA duplex with mismatches, 3' overhangs

Row | Binder | Kd (p19 [2]; [6]) [nM] | Kd (2b [3]; [6]) [nM] | Ki (2b [5]; [6]) [nM] | Kd (p19 [2]; [8]) [nM] | further results
1 | B1 | – | – | – | – | stoichiometry N [1]: 2
2 | B2 | – | – | – | – | Kd (p19 [2]; 2 nt 3' overhangs): 0.06 ± 0.04 nM; Kd (2b [3]; 2 nt 3' overhangs): 0.68 ± 0.15 nM; Ki (p19 [4]; 2 nt 3' overhangs): 0.07 ± 0.03 nM; Ki (2b [5]; 2 nt 3' overhangs): 0.53 ± 0.08 nM
3 | B3 | 0.07 ± 0.03 | 0.46 ± 0.06 | 0.67 ± 0.09 | – | Ki (p19 [4]; [6]): 0.12 ± 0.05 nM
4 | B4 | 2.29 ± 0.78 | 1.24 ± 0.15 | 12.1 ± 0.7 | – | Ki (p19 [4]; [6]): 1.59 ± 0.35 nM
5 | B5 | – | – | – | – | Kd (p19 [2]; [7]): 1.37 ± 0.29 nM; Kd (2b [3]; [7]): 0.26 ± 0.03 nM; Ki (p19 [4]; [7]): 1.09 ± 0.43 nM; Ki (2b [5]; [7]): 0.05 ± 0.004 nM
6 | B6 | 0.11 ± 0.02 | 0.22 ± 0.03 | 0.01 ± 0.006 | – | –
7 | B7 | 0.37 ± 0.06 | 0.26 ± 0.03 | 0.02 ± 0.003 | – | –
8 | B8 | – | – | – | 0.14 ± 0.05 | –
9 | B9 | – | – | – | 4.83 ± 1.57 | –
10 | B10 | – | – | – | 6.57 ± 1.5 | –
